According to publication PMC6469808:

Columns and labels:
[1] = target: Zika virus NS5 Y25A/K28S/K29A variant, full length, C-terminal 6xHis tag (Zika virus (Suriname human isolate Z1106033))
[2] = target: Zika virus NS5, full length, wild type (Suriname ZIKV human isolate Z1106033), C-terminal 6xHis tag (Zika virus (Suriname human isolate Z1106033)); experiment: SEC-MALS; Superdex 200 10/300 GL; 50 mM HEPES pH 7.0, 500 mM NaCl, 10% glycerol, 5 mM DTT; monomer-dimer
[3] = target: Zika virus NS5, full length, wild type (Suriname ZIKV human isolate Z1106033), C-terminal 6xHis tag (Zika virus (Suriname human isolate Z1106033)); experiment: AUC; sedimentation velocity, 20 °C, 43,000 rpm, 0.5 mg/ml protein; 50 mM HEPES pH 7.0, 500 mM NaCl, 5% glycerol, 0.4 mM DTT
[4] = target: Zika virus NS5, full length, wild type (Suriname ZIKV human isolate Z1106033), C-terminal 6xHis tag (Zika virus (Suriname human isolate Z1106033)); experiment: SEC-MALS; Superdex 200 10/300 GL; 50 mM MES pH 6.0, 500 mM NaCl, 10% glycerol, 5 mM DTT; monomer-dimer
[5] = target: Zika virus NS5, full length, wild type (Suriname ZIKV human isolate Z1106033), C-terminal 6xHis tag (Zika virus (Suriname human isolate Z1106033)); experiment: SAXS; 6 mg/ml NS5 (highest concentration); 50 mM MES pH 6.0, 500 mM NaCl, 10% glycerol, 5 mM DTT; 10 °C

Substance | RNA primer extension (polymerase elongation) activity at 900, 180, 18, 9 nM enzyme, variant against wild type NS5 [1] [fold] | percent abundance of the dimer peak [2] [%] | stoichiometry N [2] | percent abundance of the dimer species [3] [%] | percent of the sample as oligomer [3] [%] | stoichiometry N [3] | percent of the sample mass in the dimer peak [4] [%] | stoichiometry N [4] | stoichiometry N [5]
Zika virus NS5 Y25A/K28S/K29A variant, full length, C-terminal 6xHis tag (natural protein) | 3 | – | – | – | – | – | – | – | –
Zika virus NS5, full length, wild type (Suriname ZIKV human isolate Z1106033), C-terminal 6xHis tag (from UniProt A0A024B7W1 2521-3423) (natural protein) | – | 10.4 | 2 | 12 | 5.1 | 2 | 4 | 2 | 2
